The numbers were not newly measured in article PMC3597628, which cites them from elsewhere.

pKd: −log10 of the molar value. Where two headings read alike, the source gives them in different places.

Series [1] has as its target (Pro)renin receptor (Homo sapiens) (UniProt O75787).
The target is the same in series [2]. This is another data set of the same source.

Chain of UniProt O75787 (O75787 17-302): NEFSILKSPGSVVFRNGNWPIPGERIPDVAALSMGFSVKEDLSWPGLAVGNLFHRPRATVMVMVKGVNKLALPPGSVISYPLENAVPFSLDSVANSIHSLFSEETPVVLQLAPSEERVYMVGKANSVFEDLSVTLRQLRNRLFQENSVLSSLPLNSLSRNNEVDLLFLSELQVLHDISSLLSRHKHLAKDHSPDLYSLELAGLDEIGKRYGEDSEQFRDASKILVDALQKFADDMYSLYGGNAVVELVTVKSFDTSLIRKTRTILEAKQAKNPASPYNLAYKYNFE

As a reminder, the pKd is the Kd on a negative log10 scale, so that one unit is a factor of ten. Prorenin (from UniProt P00797): the pKd in series [1] is 8.92. Regarding Prorenin (from UniProt P08424), the negative logarithm of the Kd (pKd) in series [2] was 8.08.
